Data published in publication doi:10.1101/273615 (bioRxiv, 2018).
Values belong to the binder of their own block, whether it stands above or below them.

Experiments:
Assay in all cases: ITC
[1] = molecular target: RBPJ (53-474) A284V (Mus musculus, UniProt P31266 53-474, A284V)
[2] = molecular target: RBPJ (53-474) F261A (Mus musculus, UniProt P31266 53-474, F261A)
[3] = molecular target: RBPJ (53-474) L388A (Mus musculus, UniProt P31266 53-474, L388A)
[4] = molecular target: Mus musculus core RBPJ, residues 53-474 (Mus musculus, UniProt P31266 53-474)
Chain of Mus musculus core RBPJ, residues 53-474 (P31266 53-474): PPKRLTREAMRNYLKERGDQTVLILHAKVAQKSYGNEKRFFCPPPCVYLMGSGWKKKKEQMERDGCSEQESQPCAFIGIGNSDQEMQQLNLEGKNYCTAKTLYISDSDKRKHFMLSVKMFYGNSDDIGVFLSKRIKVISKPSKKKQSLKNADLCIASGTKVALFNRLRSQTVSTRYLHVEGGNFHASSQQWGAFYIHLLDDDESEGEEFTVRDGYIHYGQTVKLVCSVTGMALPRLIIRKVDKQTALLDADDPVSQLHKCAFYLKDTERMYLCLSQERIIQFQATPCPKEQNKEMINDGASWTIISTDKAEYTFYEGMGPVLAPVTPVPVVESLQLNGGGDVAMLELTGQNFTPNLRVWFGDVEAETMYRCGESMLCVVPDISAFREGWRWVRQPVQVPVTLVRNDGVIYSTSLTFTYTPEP

Chain of RBPJ (53-474) F261A (P31266 53-474 F261A): as the sequence (P31266 53-474) above, with F209A counted along it
Chain of RBPJ (53-474) L388A (P31266 53-474 L388A): as the sequence (P31266 53-474) above, with L336A counted along it
Chain of RBPJ (53-474) A284V (P31266 53-474 A284V): as the sequence (P31266 53-474) above, with A232V counted along it

B1: SMT3-SHARP, residues 2776-2833 (RBPJ-interacting region) (domain or fragment, UniProt Q96T58 2802-2859, looked up)
chain: SGAGLRVNTSEGVVLLSYSGQKTEGPQRISAKISQIPPASAMDIEFQQSVSKSQVKPD
- fold reduction in binding against native RBPJ [1]: ~50 fold
- fold reduction in binding against native RBPJ [2]: ~45 fold
- fold reduction in binding against native RBPJ [3]: ~70 fold
- Kd [4]: ~5 nM
- stoichiometry N [4]: 1

B3: SMT3-SHARP (2776-2833) K2807A (domain or fragment, UniProt Q96T58 2802-2859, looked up)
chain: SGAGLRVNTSEGVVLLSYSGQKTEGPQRISAAISQIPPASAMDIEFQQSVSKSQVKPD
- fold reduction in binding against native SHARP [4]: ~6 fold

B6: SMT3-SHARP (2776-2833) I2811A (domain or fragment, UniProt Q96T58 2802-2859, looked up)
chain: SGAGLRVNTSEGVVLLSYSGQKTEGPQRISAKISQAPPASAMDIEFQQSVSKSQVKPD
- fold reduction in binding against native SHARP [4]: > 60 fold

Now from value to binder:

- fold decrease in binding against native SHARP [4]: > 350 fold
B2: SMT3-SHARP (2776-2833) L2791A (domain or fragment, UniProt Q96T58 2802-2859, looked up)
chain: SGAGLRVNTSEGVVLASYSGQKTEGPQRISAKISQIPPASAMDIEFQQSVSKSQVKPD

- fold reduction in binding against native SHARP [4]: > 10 fold
B4: SMT3-SHARP (2776-2833) V2789A (domain or fragment, UniProt Q96T58 2802-2859, looked up)
chain: SGAGLRVNTSEGVALLSYSGQKTEGPQRISAKISQIPPASAMDIEFQQSVSKSQVKPD

- fold reduction in binding against native SHARP [4]: > 20 fold
B5: SMT3-SHARP (2776-2833) Y2793A (domain or fragment, UniProt Q96T58 2802-2859, looked up)
chain: SGAGLRVNTSEGVVLLSASGQKTEGPQRISAKISQIPPASAMDIEFQQSVSKSQVKPD
